The values below come from PMC7591906, “pHLIP ICG for delineation of tumors and blood flow during fluorescence-guided surgery” (Scientific Reports, 2020).

“Also recorded” adds a separate entry of the source. Peptide text beside a SMILES is read from it. * marks the point of attachment. X1 = CC1(C)C(/C=C/C=C/C=C/C=C2/N(CCCCCC(=O)NCCN3C(=O)CC(*)C3=O)c3ccc4ccccc4c3C2(C)C)=[N+](CCCCS(=O)(=O)[O-])c2ccc3ccccc3c21 Some results are limits rather than exact numbers.

Data set [1] is described as follows: Pharmacokinetics in Beagle dogs, single i.v. bolus injection. As to conditions: male, dog, plasma, iv, mean. In kind it is in vivo. Here is the method: The objective of this study performed at CRL was to characterize the pharmacokinetic profile of pHLIP ICG in Beagle dogs following a single i.v. injection.
Blood samples were collected at 5, 15, and 30 minutes, and 1, 2, 4, 6, 8, 12, 24, and 48 hours post-dose for pharmacokinetic evaluation. Samples were placed on crushed wet ice until centrifugation, which was carried out immediately. The samples were centrifuged as per standard procedures. An aliquot of 250 µL of the resultant plasma was separated, transferred to 2.0 mL low-bind tubes containing 1.25 mL of methanol, mixed and frozen immediately over dry ice and transferred to a freezer at -80°C. At the time of analysis, samples were thawed, extracted, and analyzed via LC-MS/MS according to the validated protocol using pHLIPIS.

Data set [2] in a line: Biodistribution, %ID/g estimated from tissue/organ homogenates. In kind it is in vivo, BALB/c mice. The note with it: BALB/c, mouse, small and large intestines, bone, skin, muscle, prostate, iv, 0.5 mg/kg; all time points; estimate; read-out: Amount in small and large intestines, bone, skin and muscle (and prostate). As for the experimental part: The fluorescence signals in organs and tissue were also measured in the tissue/organ homogenates and compared with the signals from the control tissue/organ homogenates (collected from control mice) mixed with known amounts of pHLIP ICG. Samples of about 100 mg of tissue were homogenized with 2.5x (about 250 µL) volumes of DMSO using BioMasher II disposable homogenizers (DiagnoCine, LLC). 30 µl of each homogenate was placed into a 384-well plate and imaged using an Odyssey IR scanner (Li-Cor Biosciences). Tissue homogenates of control mice mixed with known concentrations of pHLIP ICG were used to establish the calibration curve.

Data set [3] can be described thus: Cardiovascular telemetry study in conscious Beagle dogs (GLP). The note with it: male dogs, single i.v. bolus 0.072, 0.36, 1.44 mg/kg, up to 24 h post-dose. In kind it is in vivo. Here is the method:
The objective of this GLP study performed at CRL was to evaluate the potential cardiovascular effects of pHLIP ICG in instrumented dogs when administered by i.v. bolus injection using a Latin square design.
Each of the four male dogs received a dose of Reference Item (5 % Ethanol in Phosphate buffered saline (PBS), pH of 7.4 ± 0.2) and three dose levels of pHLIP ICG (0.072, 0.36, and 1.44 mg/kg), with a 7-day washout period between each dose. The dose was administered by i.v. bolus injection at a dose volume of 2.5 mL/kg.
The following cardiovascular parameters were evaluated for all animals from 2 hours prior and up to 24 hours post each dose: systemic blood pressures (systolic, diastolic, mean arterial, and pulse pressure), heart rate, body temperature, and electrocardiographic duration/intervals (PR, QRS, QT, and QTc). Qualitative evaluation of the electrocardiographic waveforms was performed twice prior to each dose (at least 30 minutes apart) and at 5, 15, and 30 minutes, 1, 2, 3, 4, 6, 12, and 24 hours post-dose. Additional evaluations consisted of mortality and clinical observations. There were no mortalities or pHLIP ICG related clinical signs throughout the course of the study.

What is called clearance is the volume of plasma or blood freed of the substance per unit of time. One may read the AUC(0-inf) as total exposure, with the tail of the curve extrapolated. Lower therefore signals low exposure. `CC(C)C[C@H](NC(=O)[C@H](Cc1ccc(O)cc1)NC(=O)[C@H](C)NC(=O)[C@H](CCCNC(=N)N)NC(=O)[C@H](Cc1c[nH]c2ccccc12)NC(=O)[C@@H]1CCCN1C(=O)[C@H](CC(N)=O)NC(=O)[C@H](CCC(N)=O)NC(=O)[C@H](CC(=O)O)NC(=O)[C@H](CC(=O)O)NC(=O)[C@H](CSC1CC(=O)N(CCNC(=O)CCCCCN2/C(=C/C=C/C=C/C=C/C3=[N+](CCCCS(=O)(=O)[O-])c4ccc5ccccc5c4C3(C)C)C(C)(C)c3c2ccc2ccccc32)C1=O)NC(=O)[C@H](C)N)C(=O)N[C@@H](CC(=O)O)C(=O)N[C@@H](CC(C)C)C(=O)N[C@@H](CC(C)C)C(=O)N[C@@H](Cc1ccccc1)C(=O)N1CCC[C@H]1C(=O)N[C@H](C(=O)N[C@@H](CC(=O)O)C(=O)N[C@H](C(=O)N[C@@H](CC(C)C)C(=O)N[C@@H](CC(C)C)C(=O)N[C@@H](CC(C)C)C(=O)N[C@@H](CC(=O)O)C(=O)N[C@@H](CC(C)C)C(=O)N[C@@H](CC(C)C)C(=O)N[C@@H](Cc1c[nH]c2ccccc12)C(=O)N[C@@H](C)C(=O)O)[C@@H](C)O)[C@@H](C)O` (some centres unmarked) [pHLIP ICG] (H-AC(X1)DDQNPWRAYLDLLFPTDTLLLDLLWA-OH): the clearance in data set [1] (single i.v. 0.064 mg/kg, read-out: Clearance (Cl) (converted)) is 0.193 mL/min/kg. The half-life in data set [1] (single i.v. 0.064 mg/kg, read-out: Elimination half-time (T1/2) (converted)) was 222 min. For the same molecule, the Vd in data set [1] (single i.v. 0.064 mg/kg, read-out: Volume of distribution (Vz)) turned out to be 0.0616 L/kg. Moreover, the area under the curve AUC(0-inf) in data set [1] (single i.v. bolus 0.064 mg/kg) was 5550 ng·h/mL. Further, the C0 in data set [1] (single i.v. bolus 0.064 mg/kg, 3 males, read-out: C0 (theoretical concentration at time zero)) was 1410 ng/mL. The AUC(0-t) in data set [1] (single i.v. bolus 0.064 mg/kg, read-out: AUC0-48hr) amounted to 5450 ng·h/mL. Also, in data set [2], the tissue uptake was less than 2 %ID/g. The Cardiovascular effects result in data set [3] is “no observable effect on systemic blood pressures, heart rate, body temperature, electrocardiographic intervals; also recorded: no effect on systemic blood pressures, heart rate, body temperature, electrocardiographic intervals, or qualitative ECG parameters”.
